Residue numbers refer to the chain shown, from its start. Names and notes keep the numbering of the source. “Also recorded” adds a separate entry of the source. Where two headings read alike, the source gives them in different places.
B1: E13C Acrylodan: tsGBP2_C13 (SEQ ID NO: 20) Acrylodan conjugate (conjugate)
chain: MKLEIFSWWAGDCGPALEALIRLYKQKYPGVEVINATVTGGAGVNAKAVLKTRMLGGDPPDTFQVHAGQELIGTWVVADRMEDLTSLFRQEGWLQAFPKGLIDLLSYKGGIWSVPVNIHRSNVMWYIPAKLKEWGVTPPKTWAEFLATAQTLKRKGLEAPLALGENWTQQHLWESVALATLGADGWNNLWSGKLKFTDPKAVAVWETFGKVLDAANKDAAGLSWQQAVDRVVQGKAAFNIMGDWAAGYMSTTLKLKPGTDFAWTPSPGTSGIFMMLSDSFGLPKGAKNRQNAINWLKLVGSKEGQDTFNPLKGSIAARLDSDPAKYNAYGQSAMKDWKSNRIVGSLVHGAVAPESFMSQFGTVMEIFLQSRNPQAAANAAQAIANQVGLGRGGSHHHHHH
modifications: Acrylodan conjugate; tsGBP2_C13 (13C substitution mutant with signal peptide replaced with M and a GGSHHHHHH at C-terminus)
B2: W244C Acrylodan: tsGBP2_C244 (SEQ ID NO: 30) Acrylodan conjugate (conjugate)
chain: B1 chain with C13E, W244C
modifications: Acrylodan conjugate; tsGBP2_C244 (244C substitution mutant with signal peptide replaced with M and a GGSHHHHHH at C-terminus)
B3: D12C Acrylodan: tsGBP2_C12 (SEQ ID NO: 19) Acrylodan conjugate (conjugate)
chain: B1 chain with D12C, C13E
modifications: Acrylodan conjugate; tsGBP2_C12 (12C substitution mutant with signal peptide replaced with M and a GGSHHHHHH at C-terminus)
B4: D12C Badan: tsGBP2_C12 (SEQ ID NO: 19) Badan conjugate (conjugate)
chain: B1 chain with D12C, C13E
modifications: Badan conjugate; tsGBP2_C12 (12C substitution mutant with signal peptide replaced with M and a GGSHHHHHH at C-terminus)
B5: E13C Badan: tsGBP2_C13 (SEQ ID NO: 20) Badan conjugate (conjugate)
chain: B1 chain
modifications: Badan conjugate; tsGBP2_C13 (13C substitution mutant with signal peptide replaced with M and a GGSHHHHHH at C-terminus)
B6: G41C Acrylodan: tsGBP2_C41 (SEQ ID NO: 21) Acrylodan conjugate (conjugate)
chain: B1 chain with C13E, G41C
modifications: Acrylodan conjugate; tsGBP2_C41 (41C substitution mutant with signal peptide replaced with M and a GGSHHHHHH at C-terminus)
B7: G41C Badan: tsGBP2_C41 (SEQ ID NO: 21) Badan conjugate (conjugate)
chain: B1 chain with C13E, G41C
modifications: Badan conjugate; tsGBP2_C41 (41C substitution mutant with signal peptide replaced with M and a GGSHHHHHH at C-terminus)
B8: A42C Acrylodan: tsGBP2_C42 (SEQ ID NO: 22) Acrylodan conjugate (conjugate)
chain: B1 chain with C13E, A42C
modifications: Acrylodan conjugate; tsGBP2_C42 (42C substitution mutant with signal peptide replaced with M and a GGSHHHHHH at C-terminus)
B9: A42C Badan: tsGBP2_C42 (SEQ ID NO: 22) Badan conjugate (conjugate)
chain: B1 chain with C13E, A42C
modifications: Badan conjugate; tsGBP2_C42 (42C substitution mutant with signal peptide replaced with M and a GGSHHHHHH at C-terminus)
B10: Q64C Acrylodan: tsGBP2_C64 (SEQ ID NO: 23) Acrylodan conjugate (conjugate)
chain: B1 chain with C13E, Q64C
modifications: Acrylodan conjugate; tsGBP2_C64 (64C substitution mutant with signal peptide replaced with M and a GGSHHHHHH at C-terminus)
B11: Q64C Badan: tsGBP2_C64 (SEQ ID NO: 23) Badan conjugate (conjugate)
chain: B1 chain with C13E, Q64C
modifications: Badan conjugate; tsGBP2_C64 (64C substitution mutant with signal peptide replaced with M and a GGSHHHHHH at C-terminus)
B12: H66C Acrylodan: tsGBP2_C66 (SEQ ID NO: 24) Acrylodan conjugate (conjugate)
chain: B1 chain with C13E, H66C
modifications: Acrylodan conjugate; tsGBP2_C66 (66C substitution mutant with signal peptide replaced with M and a GGSHHHHHH at C-terminus)
B13: H66C Badan: tsGBP2_C66 (SEQ ID NO: 24) Badan conjugate (conjugate)
chain: B1 chain with C13E, H66C
modifications: Badan conjugate; tsGBP2_C66 (66C substitution mutant with signal peptide replaced with M and a GGSHHHHHH at C-terminus)
B14: H119C Acrylodan: tsGBP2_C119 (SEQ ID NO: 25) Acrylodan conjugate (conjugate)
chain: B1 chain with C13E, H119C
modifications: Acrylodan conjugate; tsGBP2_C119 (119C substitution mutant with signal peptide replaced with M and a GGSHHHHHH at C-terminus)

Experiment: Ratiometric fluorescence glucose titration of fluorescent conjugates
Assay type: binding
Design: key to Shape (fluorescence response to glucose) / Change (fluorescence response to glucose): m, monochromatic; d, dichromatic (i.e. spectral shape change); 0, no change
Settings: for fluorescence response to glucose: monochromatic or dichromatic emission change; for Kd: ratiometric fit at λ1 and λ2
Excerpt: Semi-synthetic FRSs can be engineered by site-specifically attaching thiol-reactive, environmentally sensitive fluorophores that respond to ligand-mediated conformational changes. Identification of FRS candidates that can be used for sensing applications comprises three steps: • 1. Cysteine scan. Mutant glucose-binding proteins containing single cysteines are constructed for site-specific attachment of thiol-reactive fluorophores. […] Candidate positions fall into three classes: endosteric, replacing a residue that contacts the ligand directly; peristeric, located at the rim of the binding site; allosteric (Marvin et al., 1997, Proc Natl Acad Sci USA, 94, 4366-71; Marvin, 1998, J Am Chem Soc, 120, 7-11), located outside the binding site at sites that undergo local structural changes in concert with the hinge-bending motion. • 2. Fluorophore screening. Thiol-reactive, environmentally sensitive fluorophores are attached to each cysteine mutant prepared in step 1. • 3. Evaluation of the glucose-mediated change of all the fluorescent conjugates prepared in step 2. Responses to ligand binding in which there is both a change in fluorescence emission intensity and spectral shape are essential for chemometric applications, because such changes enable ratiometric measurements. Changes in spectral shape typically are accompanied by a shift in the wavelength of the emission intensity maxima. Three classes of fluorescent responses are possible: • i. No response. • ii. Monochromatic response (emission intensity increases or decreases without a change in spectral shape) • iii.
Determination of temperature- and ligand-dependent fluorescence landscapes. […] Temperatures were advanced in 1K steps.
Determination of emission intensity spectra.
2 For a single glucose-binding site, the fractional saturation is given by […]

[1] = tsGBP2 cysteine scan, Acrylodan conjugate
[2] = ttGBP1 homologs, 13C-equivalent mutants labeled with Acrylodan or Badan
[3] = tsGBP2 cysteine scan, Badan conjugate

| Molecule | Shape (fluorescence response to glucose) [1] | Shape (fluorescence response to glucose) [3] | further results |
| --- | --- | --- | --- |
| B1 | d |  | fluorescence response to glucose (listed as 13C.Acrylodan conjugate): strong dichromatic response; also recorded: strongest dichromatic response; fluorescence response to glucose (listed as Acrylodan conjugate attached to E13C): largest, wavelength-dependent changes in fluorescence emission intensities; Shape (fluorescence response to glucose) [2]: d |
| B2 | m |  | fluorescence response to glucose: strong monochromatic response |
| B3 | m |  |  |
| B4 |  | m |  |
| B5 |  | m | Change (fluorescence response to glucose) (tsGBP 13C affinity mutants, Acrylodan or Badan conjugates): m/d; Shape (fluorescence response to glucose) [2]: m |
| B6 | d |  |  |
| B7 |  | m |  |
| B8 | 0 |  |  |
| B9 |  | m |  |
| B10 | 0 |  |  |
| B11 |  | m |  |
| B12 | d |  |  |
| B13 |  | m |  |
| B14 | m |  | Kd (tsGBP2 cysteine scan, Acrylodan conjugate, read-out: Kd ^appKd): 20 µM; Kd (tsGBP2 cysteine scan, Acrylodan conjugate, read-out: Kd ^trueKd): 20 µM |
